Measurements taken from patent publication US20260167699A1 (Chugai, published 2026).
Numbering of substitutions follows the chain as printed.

T1: FcγRIIa(R) extracellular domain, C-terminal His tag (human, UniProt P12318 34-217)
T1 construct: extracellular domain; Allotype R131; also called 2aR
T1 sequence: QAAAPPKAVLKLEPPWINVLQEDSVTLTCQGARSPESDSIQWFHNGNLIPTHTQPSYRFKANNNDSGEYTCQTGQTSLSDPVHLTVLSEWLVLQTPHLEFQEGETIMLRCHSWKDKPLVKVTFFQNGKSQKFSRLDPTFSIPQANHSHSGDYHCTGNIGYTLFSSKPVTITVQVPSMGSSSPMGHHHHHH

T2: FcγRIIa(H) extracellular domain, C-terminal His tag (human, UniProt P12318 34-217)
T2 construct: extracellular domain; Allotype H131; also called 2aH
T2 sequence: T1 sequence with R134H

T3: FcγRIIb extracellular domain, C-terminal His tag (human, UniProt P31994 43-217)
T3 construct: extracellular domain; also called 2b
T3 sequence: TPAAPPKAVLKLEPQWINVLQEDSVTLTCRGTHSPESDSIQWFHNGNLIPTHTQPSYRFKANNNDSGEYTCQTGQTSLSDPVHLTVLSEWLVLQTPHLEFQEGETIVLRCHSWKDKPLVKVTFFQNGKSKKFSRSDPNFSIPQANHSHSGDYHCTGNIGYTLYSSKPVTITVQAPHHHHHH

B1: GpH7-A5/GpH7-B3 variant K326_20W/GpL16-k0 (antibody, human IgG1, kappa)
heavy 1: not shown
heavy 2: not shown
light: DIVMTQSPLSLPVTPGEPASISCQASESLVHSNRNTYLHWYLQKPGQSPQLLIYKVSNRFSGVPDRFSGSGSGTDFTLKISRVEAEDVGVYYCSQNTHVPPTFGQGTKVEIERTVAAPSVFIFPPSDEQLKSGTASVVCLLNNFYPREAKVQWKVDNALQSGNSQESVTEQDSKDSTYSLSSTLTLSKADYEKHKVYACEVTHQGLSSPVTKSFNRGEC
notes: He Ab: anti-glypican 3 IgG1 heterodimer, only the GpH7-B3 chain mutated; position in EU numbering; also called He Ab
B2: GpH7-A5/GpH7-B3 variant A327_18N/GpL16-k0 (antibody, human IgG1, kappa)
heavy 1: not shown
heavy 2: not shown
light: B1 light
notes: as for B1
B3: GpH7-A5/GpH7-B3 variant A330_14T/GpL16-k0 (antibody, human IgG1, kappa)
heavy 1: not shown
heavy 2: not shown
light: B1 light
notes: as for B1
B4: GpH7-A5/GpH7-B3 variant A330_11K/GpL16-k0 (antibody, human IgG1, kappa)
heavy 1: not shown
heavy 2: not shown
light: B1 light
notes: as for B1
B5: GpH7-A5/GpH7-B3 variant A327_09D/GpL16-k0 (antibody, human IgG1, kappa)
heavy 1: not shown
heavy 2: not shown
light: B1 light
notes: as for B1
B6: GpH7-A5/GpH7-B3 variant A327_05P/GpL16-k0 (antibody, human IgG1, kappa)
heavy 1: not shown
heavy 2: not shown
light: B1 light
notes: as for B1
B7: GpH7-A5/GpH7-B3 variant A327_19Q/GpL16-k0 (antibody, human IgG1, kappa)
heavy 1: not shown
heavy 2: not shown
light: B1 light
notes: as for B1
B8: GpH7-A5/GpH7-B3 variant I332_02A/GpL16-k0 (antibody, human IgG1, kappa)
heavy 1: not shown
heavy 2: not shown
light: B1 light
notes: as for B1
B9: GpH7-A5/GpH7-B3 variant A330_06M/GpL16-k0 (antibody, human IgG1, kappa)
heavy 1: not shown
heavy 2: not shown
light: B1 light
notes: as for B1
B10: GpH7-A5/GpH7-B3 variant A330_20W/GpL16-k0 (antibody, human IgG1, kappa)
heavy 1: not shown
heavy 2: not shown
light: B1 light
notes: as for B1
B11: GpH7-A5/GpH7-B3 variant E333_18N/GpL16-k0 (antibody, human IgG1, kappa)
heavy 1: not shown
heavy 2: not shown
light: B1 light
notes: as for B1
B12: GpH7-A5/GpH7-B3 variant A327_10E/GpL16-k0 (antibody, human IgG1, kappa)
heavy 1: not shown
heavy 2: not shown
light: B1 light
notes: as for B1
B13: GpH7-A5/GpH7-B3 variant A330_04F/GpL16-k0 (antibody, human IgG1, kappa)
heavy 1: not shown
heavy 2: not shown
light: B1 light
notes: as for B1
B14: GpH7-A5/GpH7-B3 variant I332_04F/GpL16-k0 (antibody, human IgG1, kappa)
heavy 1: not shown
heavy 2: not shown
light: B1 light
notes: as for B1
B15: GpH7-A5/GpH7-B3 variant A330_10E/GpL16-k0 (antibody, human IgG1, kappa)
heavy 1: not shown
heavy 2: not shown
light: B1 light
notes: as for B1
B16: GpH7-A5/GpH7-B3 variant A330_12R/GpL16-k0 (antibody, human IgG1, kappa)
heavy 1: not shown
heavy 2: not shown
light: B1 light
notes: as for B1
B17: GpH7-A5/GpH7-B3 variant A330_08L/GpL16-k0 (antibody, human IgG1, kappa)
heavy 1: not shown
heavy 2: not shown
light: B1 light
notes: as for B1
B18: GpH7-A5/GpH7-B3 variant A330_18N/GpL16-k0 (antibody, human IgG1, kappa)
heavy 1: not shown
heavy 2: not shown
light: B1 light
notes: as for B1
B19: GpH7-A5/GpH7-B3 variant A330_19Q/GpL16-k0 (antibody, human IgG1, kappa)
heavy 1: not shown
heavy 2: not shown
light: B1 light
notes: as for B1
B20: GpH7-A5/GpH7-B3 variant A330_16H/GpL16-k0 (antibody, human IgG1, kappa)
heavy 1: not shown
heavy 2: not shown
light: B1 light
notes: as for B1
B21: GpH7-A5/GpH7-B3 variant A330_03V/GpL16-k0 (antibody, human IgG1, kappa)
heavy 1: not shown
heavy 2: not shown
light: B1 light
notes: as for B1
B22: GpH7-A5/GpH7-B3 variant A330_01G/GpL16-k0 (antibody, human IgG1, kappa)
heavy 1: not shown
heavy 2: not shown
light: B1 light
notes: as for B1
B23: GpH7-A5/GpH7-B3 variant A327_13S/GpL16-k0 (antibody, human IgG1, kappa)
heavy 1: not shown
heavy 2: not shown
light: B1 light
notes: as for B1
B24: GpH7-A5/GpH7-B3 variant A327_20W/GpL16-k0 (antibody, human IgG1, kappa)
heavy 1: not shown
heavy 2: not shown
light: B1 light
notes: as for B1
B25: GpH7-A5/GpH7-B3 variant I332_03V/GpL16-k0 (antibody, human IgG1, kappa)
heavy 1: not shown
heavy 2: not shown
light: B1 light
notes: as for B1
B26: GpH7-A5/GpH7-B3 variant E333_12R/GpL16-k0 (antibody, human IgG1, kappa)
heavy 1: not shown
heavy 2: not shown
light: B1 light
notes: as for B1
B27: GpH7-A5/GpH7-B3 variant A330_15Y/GpL16-k0 (antibody, human IgG1, kappa)
heavy 1: not shown
heavy 2: not shown
light: B1 light
notes: as for B1
B28: GpH7-A5/GpH7-B3 variant A327_06M/GpL16-k0 (antibody, human IgG1, kappa)
heavy 1: not shown
heavy 2: not shown
light: B1 light
notes: as for B1
B29: GpH7-A5/GpH7-B3 variant A330_09D/GpL16-k0 (antibody, human IgG1, kappa)
heavy 1: not shown
heavy 2: not shown
light: B1 light
notes: as for B1
B30: GpH7-A5/GpH7-B3 variant A330_07I/GpL16-k0 (antibody, human IgG1, kappa)
heavy 1: not shown
heavy 2: not shown
light: B1 light
notes: as for B1

Target: T4, FcγRIa extracellular domain, C-terminal His tag (human, UniProt P12314 16-292)
T4 construct: extracellular domain; also called 1a
Assay: SPR (Biacore); binding relative to GpH7-A5/GpH7-B3/GpL16-k0 x100;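 note: antibodies captured on a chip surface, soluble FcγR flowed over in HBS-EP+ running buffer at 25 °C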
Method: (§1) The antibody of interest was analyzed for its interaction with FcγR using a BiaCore™ T100, BiaCore™ A100, or BiaCore™ 4000 surface plasmon resonance system (GE Healthcare Japan Corp.). The running buffer used was HBS-EP+ (GE Healthcare Japan Corp.). The assay temperature was set to 25° C. The sensor chips used were: a chip prepared by immobilizing antigenic peptides onto Series S Sensor Chip CM5 (GE Healthcare Japan Corp.) by the amine coupling method; a chip prepared by immobilizing antigenic peptides biotinylated in advance onto Series S Sensor Chip SA (certified) (GE Healthcare Japan Corp.) through their interaction; a chip prepared by immobilizing protein L (ACTIGEN, BioVision, Inc.) onto Series S Sensor Chip CM5 (GE Healthcare Japan Corp.); and a chip prepared by immobilizing protein A/G (Thermo Fisher Scientific K.K.) onto Series S Sensor Chip CM5 (GE Healthcare Japan Corp.). The antibody of interest was captured onto any of these chips and allowed to interact with FcγR diluted with a running buffer. The antibody captured on the chip was washed off through the reaction of 10 mM glycine-HCl (pH 1.5) to regenerate the chip, which was repetitively used.

T4 sequence (P12314 other isoform, or with tags, fused parts or gaps): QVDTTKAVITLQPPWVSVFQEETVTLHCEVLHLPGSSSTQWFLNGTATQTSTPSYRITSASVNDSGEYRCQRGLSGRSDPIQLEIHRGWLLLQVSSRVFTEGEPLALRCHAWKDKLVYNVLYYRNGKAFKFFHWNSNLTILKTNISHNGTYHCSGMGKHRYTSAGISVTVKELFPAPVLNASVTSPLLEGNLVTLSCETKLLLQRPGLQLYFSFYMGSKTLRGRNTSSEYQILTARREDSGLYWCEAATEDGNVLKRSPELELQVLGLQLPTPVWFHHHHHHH

Binder | He/Con 1a [%]
B1 | 108
B2 | 100
B3 | 108
B4 | 107
B5 | 105
B6 | 102
B7 | 98.5
B8 | 100
B9 | 108
B10 | 111
B11 | 91.4
B12 | 106
B13 | 110
B14 | 106
B15 | 111
B16 | 103
B17 | 110
B18 | 110
B19 | 109
B20 | 109
B21 | 109
B22 | 109
B23 | 105
B24 | 100
B25 | 100
B26 | 96.7
B27 | 108
B28 | 106
B29 | 112
B30 | 109

Target: T1, FcγRIIa(R) extracellular domain, …
Assay: as above
Method: as §1

Binder | He/Con 2aR [%]
B1 | 125
B2 | 114
B3 | 107
B4 | 124
B5 | 159
B6 | 80.6
B7 | 77.7
B8 | 96.9
B9 | 107
B10 | 97.6
B11 | 118
B12 | 142
B13 | 112
B14 | 104
B15 | 97.2
B16 | 116
B17 | 99.7
B18 | 91
B19 | 117
B20 | 111
B21 | 84
B22 | 122
B23 | 98.6
B24 | 95.9
B25 | 87
B26 | 127
B27 | 114
B28 | 80
B29 | 79.5
B30 | 96

Target: T2, FcγRIIa(H) extracellular domain, …
Assay: as above
Method: as §1

Binder | He/Con 2aH [%]
B1 | 86.7
B2 | 79
B3 | 102
B4 | 118
B5 | 124
B6 | 67.9
B7 | 79.6
B8 | 115
B9 | 101
B10 | 93.8
B11 | 110
B12 | 108
B13 | 104
B14 | 108
B15 | 87.7
B16 | 116
B17 | 94.7
B18 | 88.3
B19 | 110
B20 | 110
B21 | 86.1
B22 | 107
B23 | 84.4
B24 | 76.6
B25 | 108
B26 | 110
B27 | 106
B28 | 89.3
B29 | 67.8
B30 | 94.4

Target: T3, FcγRIIb extracellular domain, …
Assay: as above
Method: as §1

Binder | He/Con 2b [%]
B1 | 166
B2 | 141
B3 | 87.9
B4 | 107
B5 | 214
B6 | 86.3
B7 | 67.5
B8 | 114
B9 | 90.9
B10 | 86
B11 | 98.2
B12 | 175
B13 | 105
B14 | 115
B15 | 79.2
B16 | 95.8
B17 | 79.6
B18 | 71.9
B19 | 103
B20 | 99
B21 | 59.2
B22 | 117
B23 | 99
B24 | 98.2
B25 | 89.5
B26 | 104
B27 | 107
B28 | 74.1
B29 | 62.8
B30 | 75.8

Target: T5, FcγRIIIa extracellular domain, C-terminal His tag (human, UniProt P08637 17-208)
T5 construct: extracellular domain; also called 3a
Assay: as above
Method: as §1

T5 sequence (P08637 other isoform, or with tags, fused parts or gaps): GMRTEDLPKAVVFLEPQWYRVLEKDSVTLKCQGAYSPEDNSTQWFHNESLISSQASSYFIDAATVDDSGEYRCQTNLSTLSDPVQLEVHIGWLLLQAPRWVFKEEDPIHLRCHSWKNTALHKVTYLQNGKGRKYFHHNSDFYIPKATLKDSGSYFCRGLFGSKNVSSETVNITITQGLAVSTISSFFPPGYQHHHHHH

Binder | He/Con 3a [%]
B1 | 93.7
B2 | 62.8
B3 | 85.8
B4 | 91.8
B5 | 86
B6 | 61.9
B7 | 54
B8 | 103
B9 | 139
B10 | 102
B11 | 76.2
B12 | 70.5
B13 | 144
B14 | 89.3
B15 | 82.8
B16 | 77.3
B17 | 122
B18 | 67.3
B19 | 86.3
B20 | 102
B21 | 98.8
B22 | 87.3
B23 | 66.7
B24 | 52.6
B25 | 85.2
B26 | 92.2
B27 | 122
B28 | 54
B29 | 56.4
B30 | 101
